From the nanobody polyreactivity screen of Harvey et al. (2022)

experiment: yeast display, Sf9 membrane polyspecificity reagent, FACS + sequencing; frameworks hold sequencing errors
How it was run: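 Using colony PCR, genes from sorted yeast display clones were amplified, then sequenced on MiSeq at 2 × 250 and filtered by CDR length. The clones had been stained with 10% biotinylated, detergent-solubilized Sf9 membrane reagent for 1 hour at 4 °C and sorted by FACS into low and high (top ~1%) gates on anti-HA and streptavidin fluorescence. Polyreactivity labels come from the gate of origin.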

Sequence	polyreactivity (PSR sort gate)
QVQLVESGGGLVQAGGSLRLSCAASGFTFDKNAMGWYRPAPGKERELVAAINIGSTYYADSVKGRFTISRDNAKNTVYLQMNRLKPEDTAVYYCAKEVPSGYWVNYYYWGQGTQVTVSS	low polyreactivity
QVQLVESGGGLVQAGGSLRLSCAASGFTFDKYAMGRYRQAPGKERDLDAGITRSGSTYYADSVKGRFTISRDNAKNTVYLQMNSLKPEDTAVYYCKARPRGSYNRPNYPRYYYCGQGTQVTVSS	high polyreactivity
QVQLVESGGGLVQAGGSLRLSCAASGFTFDNYAMGWYRQAPGKERELVAAINWSGGRTYYADSVKGRFTISRDNAKNTVYLQMNSLKPEDTAVYYCAVPGYVRMDYWGQGTQVTVSS	high polyreactivity
QVQLVESGGGLVQAGGSLRLSCAASGFTFDNYAMGWYRQAPGKERELVAAISSGGGRTYYADSVKGRFTISRDNAKNTVYLLMNSLKPEDTAVYYCAAVTLYKRYDYWGQGTQVTVSS	high polyreactivity
QVQLVESGGGLVQAGGSLRLSCAASGFTFDNYVMGWYRQAPGKERELVAAISKSGTSTYYADSVKGRFTISRDNAKNTVYLQMNSLKPEDTAVYYCAAALPGYGDYYYWGQGTQVTVSS	high polyreactivity
QVQLVESGGGLVQAGGSLRLSCAASGFTFDSNAMGRYRQAPGKERELVAANSTGGSTYYADSVKGRFTISRDNAKNTVYLQMNSLKPEDTAVYYCARDPPYPDTWYGYWGQGTQVTVSS	low polyreactivity
QVQLVESGGGLVQAGGSLRLSCAASGFTFDSYAMGWYRQAPGKERELVAAISYRGGTTYYADSVKGRFTISRDNAKNTVYLQMNSLKPEDTAVYYCATPYKYVTGEDYWGQGTQVTVSS	high polyreactivity
QVQLVESGGGLVQAGGSLRLSCAASGFTFDTNAMGWYRLAPGKERELVAAISRIGGRPYADSVKGRFTISRDNAKNTVYLQMNSLKPEDTAVYYGAADTTGYPYGYDSWGQGTQVTVSS	low polyreactivity
QVQLVESGGGLVQAGGSLRLSCAASGFTFDWYAMGWYTQAPGKERELVAAITTSGGTTYYADSVKGRFTISRDNSKNNVYLKMISLKPEDPAVYFCAADYYYWYPVEKYDYCGQGTQVTVSS	low polyreactivity
QVQLVESGGGLVQAGGSLRLSCAASGFTFDYNAMGWSRQAPGKERELVAAISYSDDSTYYADSVKGRFTISRDNAKNTVYLQMNSLKPEETAVYYCAAYFGAYGYDYWGQGSQVTVSS	low polyreactivity
QVQLVESGGGLVQAGGSLRLSCAASGFTFDYNAMGWYRQAPGKERELVAAISASGGSTYYADSVKGRFTISRDTAKNTVYLQMNSLKPEDTAVYYCAAKRFSPQHRYDHWGQGTQVTVSS	high polyreactivity
QVQLVESGGGLVQAGGSLRLSCAASGFTFDYNAMGWYRQAPGKERELVAAISASGGSTYYADSVKGRYTISRDTAKNTVYLQMNSLKPEYTAVYYCAAKRFSPQHRYDHWGQGTQVTVSS	high polyreactivity
QVQLVESGGGLVQAGGSLRLSCAASGFTFDYNAMGWYRQAPGKERELVAAISNTGDSTYYADSVKGRFTISRDNAKNTVYLQMNSLKPEDTAVYYCAADSLFYDYWEYDYWGQGTQVTVSS	low polyreactivity
QVQLVESGGGLVQAGGSLRLSCAASGFTFDYYAMGWYRQAPGKERELVAAINWSGAITYYADSVKGRFTISRDNAKNTVYLQMNSLKPEDTAVYYCAARWGKFYGRFYWGMDYWGQGTQVTVSS	high polyreactivity
QVQLVESGGGLVQAGGSLRLSCAASGFTFDYYAMGWYRQAPGKERELVAAITSGSITYYADSVKGRFTISRDNAKNTVYLQMNSLKPEDTAVYSCAAVGLVRYGYWGQGTQVTVSS	high polyreactivity
QVQLVESGGGLVQAGGSLRLSCAASGFTFDYYTMGWYRQAPGKEREFVAAITWNGGTTNYADSVKGRCTISRDNAKNTVYLQMNSLKPEDTALYYCADTAYWYFSNDSGRSYDYWGQGTQVTVSS	low polyreactivity
QVQLVESGGGLVQAGGSLRLSCAASGFTFEDNTMGGYRQAPGKERELVAAITWGGVSTYYADSVKGRFTISRDNAKKTVYLQMNSLKPEDTAVYYCARDYDVYTVFLMDYWGQGTQVTVSS	low polyreactivity
QVQLVESGGGLVQAGGSLRLSCAASGFTFEKYAMGWYRQAPGKERELVAAISQSAGSTYADSVKGRFTISRDNAKNTVYLQMNSLKPEDTAVYYFAARYRYPYYARYGYWGQGTQVTVSS	high polyreactivity
QVQLVESGGGLVQAGGSLRLSCAASGFTFENYAMGWYRQAPGKEREFVAAISTRGTSTYYADSVKGRFTISRDNAKNTVYLQMNSLKPEDTAVYYCAARFYYWGQGTQVTVSS	high polyreactivity
QVQLVESGGGLVQAGGSLRLSCAASGFTFERYAMGWYRQAPGKERELVAAIDWRGVNTYYADSVKGRFTISRDNAKNTVYLQMNSLKPEDTAVYYCAATRPATYASYDYWGQGTQLTVSS	high polyreactivity
QVQLVESGGGLVQAGGSLRLSCAASGFTFEWYTMGWYRQAPGKERELVADISGDGSTYYADSVKGRFTISRDNAKNTVYLQMNSLKPEDTAVYYCAASFWGIAMGYWAQGTQVTVSS	high polyreactivity
QVQLVESGGGLVQAGGSLRLSCAASGFTFFAYTMGWYRQAPWKERELVAAISWSGAGTYYADSVKGRFTISRDNAKNTVYLQMNSLKPEDTAVYYCNGVPYSGFDYWGQGTQVTVSS	high polyreactivity

Sequence	polyreactivity (PSR sort gate)
QVQLVESGGGLVQAGGSLRLSCAASGFTFFFYAMGWYRQAPGKEREFVAATSWIGGGTYYADSVKGRFTISRDNAKNTVYLLMNSLKPEDTAVYYCATDLASYAVGSKYGYWGQGTQVTVSS	low polyreactivity
QVQLVESGGGLVQAGGSLRLSCAASGFTFFNYAMGWYRQAPGKERELVAAISRSGGGTYYADSVKGRFTISRDNAKNTDYLQMNSLKPEDTAVYYCNKRGTHGYTYRKFDYWGQGTQVTVSS	high polyreactivity
QVQLVESGGGLVQAGGSLRLSCAASGFTFFPYAMGWYRQAPGKERELVATITRGGSTNYADSVKGRFTISRDNAKNSVYLQMNSLKPEDTAVYYCNIDKKTPTFDYWGQGTQVTVSS	low polyreactivity
QVQLVESGGGLVQAGGSLRLSCAASGFTFFSNAMGWYIQAPGKERELVAAITSSGGSTYADSVKGRFTISRDNAKNTVYLQMNSLKPEDTAVYYCAADAQAPPGGFKEYDYWGQGTQVTVSS	low polyreactivity
QVQLVESGGGLVQAGGSLRLSCAASGFTFFWYTMGWYRQAPGKERELVAAISDTGGSTYYADSVKGRFTISRDNAKNTVYLQMNSLKPEDTAVYYCAAQYVRYGHYYWGQGTQVTVSS	high polyreactivity
QVQLVESGGGLVQAGGSLRLSCAASGFTFFYNAMGWYRQAPGKEREFVAAISGRGGRTYYADSVKGRFTISRDNAKNTVYLQMNSLKPEDTAVYYCNADYYPYGEYDYWGQGTQVTVSS	high polyreactivity
QVQLVESGGGLVQAGGSLRLSCAASGFTFFYYAMGWYRQAPGKERELVARISSSGGRTYYADSVKGRFTISRDNAKNTVYLQMNSLKPEDTAVYYCNARYYYYYTRYDYWGQGTQVTVSS	high polyreactivity
QVQLVESGGGLVQAGGSLRLSCAASGFTFGAYAMGWYRQAPGKERELVAAITRSSTSTFYADSVKGRFTISRDNAKNTVYLQMNSLKPEDTAVYYCAARGRPRYYSYAGDYWGQGTQVTVSS	high polyreactivity
QVQLVESGGGLVQAGGSLRLSCAASGFTFGENAMGWYRQAPGKERELVAAITGGTDTNYADSVKGRFTISRDNAKNTVYLQMNSLKPEDTAVYYCAAYVPHFAPLGGGGGYDYWGEGTQVTVSS	low polyreactivity
QVQLVESGGGLVQAGGSLRLSCAASGFTFGENAMGWYRQAPWKERELVAAITSGDGTSYADSVKGRFTISRDNAKNTVYLQMNSLKPEVTAVYDCAADGGDELYYSTYDYWGQGTQVTVSS	low polyreactivity
QVQLVESGGGLVQAGGSLRLSCAASGFTFGGNAMGWYRQAPGKERELVASITSGGSTNYADSVKGRFTISRDNAKNTVYLQMNSLKPEDTAVYYCAAARTGRARRHFDYWGQGTQVTVSS	low polyreactivity
QVQLVESGGGLVQAGGSLRLSCAASGFTFGGYAMGWYRQAPGKERELVAAISQSGGRTYYADSVKGRFTISRDHAMNTVDLQMISLKPEDTAVYYCAKPSTTYYQRGDYWGQGTQVTVSS	high polyreactivity
QVQLVESGGGLVQAGGSLRLSCAASGFTFGGYAMGWYRQAPGKERELVAAITWSGGTTYYADSVKGRFTISRDNAKNTVYLQMNSLKPEDTAVYYCAAESTLPIIDRDDYWGQGSQVTVSS	low polyreactivity
QVQLVESGGGLVQAGGSLRLSCAASGFTFGIYAMGWYRQAPGKERELVAAINVSDGSTYYADSVKGRFTISRDNAKNTVYLQMNILKPEDTAVYYCAAYLYVTIYTSYREYDYWGQGTQVTVSS	low polyreactivity
QVQLVESGGGLVQAGGSLRLSCAASGFTFGLYAMGWYRQAPGKERELVASITWSGGSTYYADSVKGRFTISRDNAKNTVYLQMNSLKPEDTAVYDCAKRLYLITWAASSADDYWGQGTQVTVSS	low polyreactivity
QVQLVESGGGLVQAGGSLRLSCAASGFTFGLYAMGWYRQAPGKERELVAVISSSGGSTYDADSVKGRFTISRDNAKNTVYLQMNSLKPEETAVYYCAAEWHDYKFDVTYDYWGQGTQVTVSS	low polyreactivity
QVQLVESGGGLVQAGGSLRLSCAASGFTFGNNAMGWYRKAPGKERELVAAISKRGSSTYYADSVKGRFTISRDNAKNTVYLQMNSLKPEDTAVYYCAAEGRRTRYYYWGQGTQVTVSS	high polyreactivity
QVQLVESGGGLVQAGGSLRLSCAASGFTFGNYAMGWYRQAPGKERELVAAISSRGGSTYYADSVKGRFTISRDNAKNSVYLQMNSLKPEDTAVYYCNALRLEVDMGYWGQGTQITVSS	high polyreactivity
QVQLVESGGGLVQAGGSLRLSCAASGFTFGNYAMGWYRQAPGKERELVAAISSRGGSTYYADSVKGRFTISRDNAKNTVYLQMNSLKPEDTAVYYCNALRLEVDMGYWGQGTQITVSS	high polyreactivity
QVQLVESGGGLVQAGGSLRLSCAASGFTFGPKAMGWYRQAPVKERELVAAITFRGDSTYYADSVKVRFTISRDYAKNTVYLQMNCLKPEDTAVYYCATHDRWHHRSLPYEYWGQGTQVTVSS	low polyreactivity
QVQLVESGGGLVQAGGSLRLSCAASGFTFGPNTMGWYRQAPGKERELVAAISARGGRTYYADSVKGRFTISRDNAKNTVYLQMNSLKPEDTAVYYCAAPGYVRTGVTYGGYYWGQGTQVTVSS	high polyreactivity
